Results on 1 molecule are retold here after patent US12281162 (LANOVA MEDICINES DEVELOPMENT, dated 2025).

Assay [1] has as its target T1, human G-protein-coupled receptor family C group 5 member D (GPRC5D) (human, UniProt Q9NZD1 1-345).
T1 construct: whole, on cells; also called human GPRC5D protein
The experiment in a line: FACS, CHO-K1/GPRC5D. On the technique in general: Flow cytometry measures light scatter and fluorescence of single cells or particles in a stream.

In assay [2] the target is T1, human G-protein-coupled receptor family …. Put plainly: FACS, NCI-H929 cells.
Assay [3] has the same target. The experiment in a line: FACS, CHO-K1/human GPRC5D.
The target is the same in assay [4]. The experiment in a line: FACS, CHO-K1/human GPRC5D, chimeric antibody. How it is done: CHO—K1 cells stably expressed human GPRC5D, were harvested from flasks. 100 µl of 1×10⁶ cells/ml of cells were incubated with primary chimeric antibodies in 3-fold serial dilutions starting from 300 nM to 0.001 nM for 30 minutes on ice. After being washed with 200 µl of FACS buffer twice, cells were incubated with secondary antibody for 30 minutes on ice. Cells were washed with 200 µl of FACS buffer twice and transferred to BD Falcon 5 ml tube and analyzed by FACS.

T1 sequence (Q9NZD1 whole entry): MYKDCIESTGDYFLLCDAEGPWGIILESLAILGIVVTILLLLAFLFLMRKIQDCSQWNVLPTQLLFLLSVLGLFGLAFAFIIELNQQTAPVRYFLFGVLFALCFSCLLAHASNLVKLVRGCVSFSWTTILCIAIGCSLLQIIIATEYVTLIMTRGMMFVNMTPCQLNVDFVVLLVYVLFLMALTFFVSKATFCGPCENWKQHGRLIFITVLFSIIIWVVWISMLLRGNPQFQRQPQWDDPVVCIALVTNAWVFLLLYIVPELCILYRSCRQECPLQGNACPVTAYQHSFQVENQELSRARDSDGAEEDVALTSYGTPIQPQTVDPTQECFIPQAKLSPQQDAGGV

B1: 6G10D9-XI (antibody, V domains shown)
VH: QVQLQQSGAELARPGASVKMSCKASGYTFTTYTMHWVKQRPGQGLEWLGYINPSSGYTNYNQKFKDKATLTAGKSSSTAYMQLSSLTSEDSAVYYCASLRSRGYFDYWGQGTTLTVSS
VL: DIVMTQSQTFMSTSVGDRVRITCKASQNVGTAVVWYQQKTGQSPRLLIYSASNRYTGVPDRFTGSGSGTDFTLTISNMQSEDLADFFCQQYSSYPYTFGGGTKLEIK
notes: also called 6G10D9 (chimeric); 6G1009-X1
On to B1, for which the Bottom amounted to 6860 in assay [1], 269 in assay [2], 524 in assay [3] and 6890 in assay [4]. In addition, the LogEC50 in assay [1] came to 0.299; in assay [2] it was 0.0515; in assay [3], 0.472; in assay [4] it was 0.101. The Span in assay [1] was determined as 115000; in assay [2], 13500; in assay [3], 104000; in assay [4], 451000. The Top in assay [1] was 122000; in assay [2] it was 13800; in assay [3] it was 104000; in assay [4], 458000.
